Earlier results as cited in patent US20220280635A1, “PARTICLES FOR STIMULATING AN IMMUNE RESPONSE AGAINST VIRAL INFECTIONS” (FINNCURE OY, priority 2020, published 2022).

Target: ACE2 (Homo sapiens, UniProt Q9BYF1)
Settings: simulation, ref [8]

Chain of ACE2 (Q9BYF1 18-805): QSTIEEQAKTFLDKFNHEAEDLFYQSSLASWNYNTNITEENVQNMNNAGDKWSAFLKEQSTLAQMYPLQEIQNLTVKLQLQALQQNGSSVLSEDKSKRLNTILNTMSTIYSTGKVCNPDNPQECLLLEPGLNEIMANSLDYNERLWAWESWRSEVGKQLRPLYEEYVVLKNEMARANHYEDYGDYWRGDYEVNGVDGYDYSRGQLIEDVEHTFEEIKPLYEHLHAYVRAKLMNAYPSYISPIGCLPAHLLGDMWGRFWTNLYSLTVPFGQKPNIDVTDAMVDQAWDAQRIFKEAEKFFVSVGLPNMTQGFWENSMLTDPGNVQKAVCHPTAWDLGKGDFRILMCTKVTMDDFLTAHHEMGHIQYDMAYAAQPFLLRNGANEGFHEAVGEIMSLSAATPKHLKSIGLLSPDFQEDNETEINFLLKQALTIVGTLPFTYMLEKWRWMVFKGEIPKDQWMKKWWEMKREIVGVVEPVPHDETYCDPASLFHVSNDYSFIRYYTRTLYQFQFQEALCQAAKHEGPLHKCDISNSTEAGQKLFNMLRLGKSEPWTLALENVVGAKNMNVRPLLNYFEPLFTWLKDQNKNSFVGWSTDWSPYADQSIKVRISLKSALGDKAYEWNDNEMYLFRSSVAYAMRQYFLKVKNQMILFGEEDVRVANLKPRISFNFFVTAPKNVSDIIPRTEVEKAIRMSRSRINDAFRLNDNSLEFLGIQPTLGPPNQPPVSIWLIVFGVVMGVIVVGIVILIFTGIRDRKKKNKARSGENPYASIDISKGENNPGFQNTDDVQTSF

Substance: YKYNYL: alternative synthetic hexapeptide variant (Potential alternative synthetic hexapeptide variant)
- binding affinity towards the ACE2 receptor compared with YKYRYL: even stronger binding affinity

Substance: YKYNYI: alternative synthetic hexapeptide variant (Potential alternative synthetic hexapeptide variant)
- binding affinity towards the ACE2 receptor compared with YKYRYL: even stronger binding affinity
